Measured values from patent US11680298B2, “Method of identifying risk of cancer and therapeutic options” (Agency for Science, Technology and Research, priority 2016, dated 2023).

Key:
[1] = molecular target: T1, IRAK1 (Homo sapiens, UniProt P51617); assay: Western blot of phospho-IRAK1 in breast cancer cells and patient-derived tumourspheres; assay type: cell-based; parameters: endogenous in cells; host or cells: MB468 and MB231 cells; PDX-derived tumourspheres
Description: Recombinant IL-1p (Cat no: 200-01B) was purchased from Peprotech (Rocky Hill, N.J.). Recombinant S100A7 (Cat no: pro-149), S100A8 (Cat no: pro-800) and S100A9 (Cat no: pro-814), were purchased from ProSpec (East Brunswick, N.J.). Cells were treated with recombinant proteins at stated concentration for 20 min before harvesting for western blot. Paclitaxel (Cat no: P-9600) was purchased from LC Lab (Woburn, Mass.).
(§1) All immunoblots shown in this specification represent at least two independent experiments. In brief, cells were washed with PBS and lysed in RIPA buffer supplemented with protease and phosphatase inhibitors and further sonicated using an XL2000 Microson Ultrasonice Processor (Misonix). Equal amounts of protein extract were separated on SDS-polyacrylamided gels and transferred to PVDF membranes. Membranes were further blocked with 5% milk or BSA, and then probed with the following antibodies: anti-IRAK1 was purchased from Santa Cruz Biotechnology (Santa Cruz, Calif.; sc-7883), anti-phospho-IRAK1 (T209) was purchased from Assay Biotech (Sunnyvale, Calif.; A1074), anti-JAK2 (Danvers, Mass.; #3230) and anti-phospho-JAK2 ([…]) (Danvers, Mass.: #3774) were purchased from Cell Signaling Technology, anti-actin was purchased from Sigma Aldrich CA; A5441). For protein extraction of xenograft tumours, snap frozen samples were resuspended in RIPA buffer supplemented with protease and phosphatase inhibitors and homogenized with QIAGEN TissueLyzer II as described by the manufacturer, followed by immunoblotting as described above.

[2] = tested on: K239S mutant cells (MB436, MB468); assay: Tumoursphere formation of K239S mutant IRAK1 cells with recombinant protein rescue; assay type: cell-based; details: recombinant protein added to culture medium of K239S mutant IRAK1 cells
Description: Mammosphere Formation Assay PDX-derived tumoursphere cells were trypsinized and passed through 40 μm cell strainer to achieve single cell suspensions. 3×10^4 cells were seeded in 6-well ultra-low attachment plates (Corning, N.Y.; CLS3471) in serum-free DMEM/F12 supplemented with N2 and B27 (Gibco, Grand Island, N.Y.), 20 ng/ml epidermal growth factor (MACS, Auburn, Calif.), 20 ng/ml basic fibroblast growth factor (MACS, Auburn, Calif.), 0.2 μM Thiazovivin ([…] Technologies, Vancouver, BC) and penicillin/streptomycin (Gibco, Carlsbad, Calif.). For breast cancer cell lines and MCF10A cell line, 3×10^4 cells were seeded in 6-well ultra-low attachment plates in Mammocult medium (Stem Cell Technologies, Vancouver, BC, Canada), supplemented with fresh hydrocortisone (0.5 μg/ml) and heparin (1:500). Mammospheres were maintained at 37° C. with 5% CO2 and topped up with medium every 3 days. After 7-9 days, mammospheres were stained with INT (2-(4-iodophenyl)-3-(4-nitrophenyl)-5-phenyl-2H-tetrazolium chloride, Sigma-Aldrich) and quantified. Imaging and quantification were done using GelCount apparatus and associated software (Oxford Optronix, Abingdon, UK). […] Cell Proliferation Assay […]

[3] = molecular target: T1, IRAK1; assay: Western blot of phospho-IRAK1 in breast cancer cells and patient-derived tumourspheres; assay type: cell-based; parameters: endogenous in cells; host or cells: MB468 and MB231 cells; PDX-derived tumourspheres; details: MCF10A, long-term treatment with recombinant protein for 10 days
[4] = tested on: tumourspheres from both cell lines and patient-derived samples; assay: S100A8/S100A9 recombinant protein rescue of pacritinib-treated tumourspheres; assay type: cell-based, human; details: recombinant protein 10 ng/ml added to culture medium; pacritinib 2.5 μM or 1 μM (method)
Description: (§2) Mammosphere Formation Assay PDX-derived tumoursphere cells were trypsinized and passed through 40 μm cell strainer to achieve single cell suspensions. 3×10^4 cells were seeded in 6-well ultra-low attachment plates (Corning, N.Y.; CLS3471) in serum-free DMEM/F12 supplemented with N2 and B27 (Gibco, Grand Island, N.Y.), 20 ng/ml epidermal growth factor (MACS, Auburn, Calif.), 20 ng/ml basic fibroblast growth factor (MACS, Auburn, Calif.), 0.2 μM Thiazovivin ([…] Technologies, Vancouver, BC) and penicillin/streptomycin (Gibco, Carlsbad, Calif.). For breast cancer cell lines and MCF10A cell line, 3×10^4 cells were seeded in 6-well ultra-low attachment plates in Mammocult medium (Stem Cell Technologies, Vancouver, BC, Canada), supplemented with fresh hydrocortisone (0.5 μg/ml) and heparin (1:500). Mammospheres were maintained at 37° C. with 5% CO2 and topped up with medium every 3 days. After 7-9 days, mammospheres were stained with INT (2-(4-iodophenyl)-3-(4-nitrophenyl)-5-phenyl-2H-tetrazolium chloride, Sigma-Aldrich) and quantified. Imaging and quantification were done using GelCount apparatus and associated software (Oxford Optronix, Abingdon, UK). […] Cell Proliferation Assay

[5] = tested on: MCF10A; assay: Mammosphere formation assay, MCF10A; assay type: cell-based; details: long-term treatment with recombinant protein for 10 days
Description: as §2

[6] = tested on: EL12-58 PDX tumours; assay: Neoadjuvant breast cancer PDX model of tumour recurrence; assay type: in vivo, NOD-SCID mice; details: after paclitaxel-induced regression and surgery; 20 mg/kg paclitaxel, 150 mg/kg pacritinib or both
[7] = molecular target: T2, JAK2 (Homo sapiens, UniProt O60674); assay: Western blot of phospho-JAK2 in breast cancer cells and patient-derived tumourspheres; assay type: cell-based; details: patient-derived tumourspheres, IL-1 treatment
T2 construct: endogenous in cells; host or cells: MB468 and MB231 cells; PDX-derived tumourspheres
T2 sequence (O60674 whole entry): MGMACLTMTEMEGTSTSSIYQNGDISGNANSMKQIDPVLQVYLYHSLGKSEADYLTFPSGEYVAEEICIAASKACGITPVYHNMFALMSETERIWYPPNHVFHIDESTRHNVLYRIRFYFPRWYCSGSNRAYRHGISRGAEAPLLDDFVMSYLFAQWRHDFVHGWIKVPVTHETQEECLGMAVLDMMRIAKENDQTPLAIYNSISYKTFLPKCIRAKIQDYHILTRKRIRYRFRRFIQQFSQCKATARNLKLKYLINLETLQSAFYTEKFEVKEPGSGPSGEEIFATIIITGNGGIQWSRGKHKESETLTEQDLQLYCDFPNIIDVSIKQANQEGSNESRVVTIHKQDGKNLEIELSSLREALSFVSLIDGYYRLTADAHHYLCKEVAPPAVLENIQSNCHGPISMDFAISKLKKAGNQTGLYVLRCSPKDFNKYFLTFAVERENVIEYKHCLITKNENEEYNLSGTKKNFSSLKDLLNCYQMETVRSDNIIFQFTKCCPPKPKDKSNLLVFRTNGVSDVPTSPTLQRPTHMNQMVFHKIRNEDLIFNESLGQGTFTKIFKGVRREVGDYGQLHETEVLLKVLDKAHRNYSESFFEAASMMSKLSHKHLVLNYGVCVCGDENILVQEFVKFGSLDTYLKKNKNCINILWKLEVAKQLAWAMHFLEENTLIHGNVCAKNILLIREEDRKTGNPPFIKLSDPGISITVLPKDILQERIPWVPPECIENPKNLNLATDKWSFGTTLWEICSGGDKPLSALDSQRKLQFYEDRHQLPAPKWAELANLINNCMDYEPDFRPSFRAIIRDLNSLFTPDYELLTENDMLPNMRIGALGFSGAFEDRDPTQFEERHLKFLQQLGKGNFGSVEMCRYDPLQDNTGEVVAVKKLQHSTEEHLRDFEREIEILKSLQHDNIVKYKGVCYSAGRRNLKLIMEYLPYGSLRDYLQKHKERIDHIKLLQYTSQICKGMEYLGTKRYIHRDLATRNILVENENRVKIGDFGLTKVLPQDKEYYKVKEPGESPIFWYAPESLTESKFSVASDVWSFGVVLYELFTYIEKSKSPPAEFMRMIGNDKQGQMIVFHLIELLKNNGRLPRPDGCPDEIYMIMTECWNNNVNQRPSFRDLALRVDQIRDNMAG
Excerpt: as §1

[8] = MB231 cells, recombinant protein as low as 1 ng/ml

T1 sequence (P51617 whole entry): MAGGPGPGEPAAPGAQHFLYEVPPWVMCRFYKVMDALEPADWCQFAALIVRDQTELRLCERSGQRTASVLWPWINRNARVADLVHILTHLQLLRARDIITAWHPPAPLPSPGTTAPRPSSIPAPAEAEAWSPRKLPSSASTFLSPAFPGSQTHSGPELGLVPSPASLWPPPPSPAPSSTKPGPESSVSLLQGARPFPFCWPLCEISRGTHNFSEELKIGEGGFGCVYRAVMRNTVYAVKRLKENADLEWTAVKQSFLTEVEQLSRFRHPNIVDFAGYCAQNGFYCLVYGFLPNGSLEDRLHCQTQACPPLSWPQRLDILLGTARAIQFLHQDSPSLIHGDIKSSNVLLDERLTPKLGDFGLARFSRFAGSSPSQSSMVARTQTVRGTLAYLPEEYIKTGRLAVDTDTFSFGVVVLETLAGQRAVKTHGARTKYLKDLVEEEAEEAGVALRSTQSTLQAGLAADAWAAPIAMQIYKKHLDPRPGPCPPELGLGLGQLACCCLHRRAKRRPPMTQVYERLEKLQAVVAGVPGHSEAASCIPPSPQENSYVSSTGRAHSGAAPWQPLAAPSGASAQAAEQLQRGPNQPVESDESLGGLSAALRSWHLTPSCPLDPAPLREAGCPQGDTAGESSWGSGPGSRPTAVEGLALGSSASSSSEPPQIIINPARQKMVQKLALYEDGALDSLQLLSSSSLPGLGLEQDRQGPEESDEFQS

With “S100A9: Recombinant S100A9 protein purchased from ProSpec (Cat no: pro-814)” the IRAK1 phosphorylation [1, 8] was “able to induce IRAK1 phosphorylation”, the “rescue of tumoursphere growth” value [2] was “able to rescue the tumoursphere growth” and the IRAK1 phosphorylation [3] was “increased IRAK1 phosphorylation”. For the same molecule, the “rescue of pacritinib-induced tumoursphere growth inhibition” value [4] was “effectively rescued pacritinib-induced growth inhibition” and the mammosphere formation [5] was “increased mammosphere formation”.

For `CC(=O)O[C@H]1C(=O)[C@@]2(C)[C@H]([C@H](OC(=O)c3ccccc3)[C@]3(O)C[C@H](OC(=O)[C@H](O)[C@@H](NC(=O)c4ccccc4)c4ccccc4)C(C)=C1C3(C)C)[C@]1(OC(C)=O)CO[C@@H]1C[C@@H]2O` [paclitaxel], the “tumour regrowth after surgical removal of residual tumour” value [6] was “slowed down”.

“S100A8: Recombinant S100A8 protein purchased from ProSpec (Cat no: pro-800)” was tested, and the IRAK1 phosphorylation [1, 8] was “able to induce IRAK1 phosphorylation”, the “rescue of tumoursphere growth” value [2] was “able to rescue the tumoursphere growth” and the IRAK1 phosphorylation [3] was “increased IRAK1 phosphorylation”. For the same molecule, the “rescue of pacritinib-induced tumoursphere growth inhibition” value [4] was “effectively rescued pacritinib-induced growth inhibition” and the mammosphere formation [5] was “increased mammosphere formation”.

In the case of “IL-1p: Recombinant IL-1p (Cat no: 200-01B) purchased from Peprotech”, the IRAK1 phosphorylation ([1]; patient-derived tumourspheres, IL-1 treatment) is reported as “did not have an obvious effect on IRAK1 phosphorylation” and the JAK2 phosphorylation [7] is reported as “remarkably induced JAK2 phosphorylation”.

B1: S100A7: Recombinant S100A7 protein purchased from ProSpec (Cat no: pro-149) (protein, UniProt P31151 2-101, looked up)
Protein S100-A7: SNTQAERSIIGMIDMFHKYTRRDDKIEKPSLLTMMKENFPNFLSACDKKGTNYLADVFEKKDKNEDKKIDFSEFLSLLGDIATDYHKQSHGAAPCSGGSQ
With B1 the IRAK1 phosphorylation [1, 8] was “able to induce IRAK1 phosphorylation”.
